Test system: Escherichia coli TOP10
Assay: shrunken log2 fold change of peptide-encoding DNA abundance (4.5 h post-induction vs induction); higher = less antimicrobial activity (less host growth inhibition)
Conditions: time post-induction: 4.5 h; library: site-saturation at positions 5, 18, 19, 20
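Further: peptides expressed intracellularly from a pBAD plasmid library in pooled LB shake-flask culture, induced with 0.3% L-arabinose, DNA abundance read by NGS, three biological replicates, DESeq2 with apeglm shrinkage.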

Row | Sequence | shrunken log2 fold change
1 | RRIRPRPPRLPRPRPRPSLVPRP | -0.222
2 | RRIRPRPPRLPRPRPRPSMGPRP | -0.156
3 | RRIRPRPPRLPRPRPRPSMTPRP | 0.496
4 | RRIRPRPPRLPRPRPRPSMVPRP | -0.376
5 | RRIRPRPPRLPRPRPRPSQAPRP | 0.106
6 | RRIRPRPPRLPRPRPRPSQQPRP | 0.0138
7 | RRIRPRPPRLPRPRPRPSQVPRP | -0.645
8 | RRIRPRPPRLPRPRPRPSSMPRP | -0.29
9 | RRIRPRPPRLPRPRPRPSTHPRP | -0.203
10 | RRIRPRPPRLPRPRPRPSTYPRP | -0.415
11 | RRIRPRPPRLPRPRPRPSVAPRP | 0.0839
12 | RRIRPRPPRLPRPRPRPSVVPRP | -0.162
13 | RRIRPRPPRLPRPRPRPSVYPRP | -0.361
14 | RRIRPRPPRLPRPRPRPSWGPRP | -0.0123
15 | RRIRPRPPRLPRPRPRPSYIPRP | -0.458
16 | RRIRPRPPRLPRPRPRPSYTPRP | -0.868
17 | RRIRPRPPRLPRPRPRPSYWPRP | -0.277
18 | RRIRPRPPRLPRPRPRPTCDPRP | 0.052
19 | RRIRPRPPRLPRPRPRPTCNPRP | -0.142
20 | RRIRPRPPRLPRPRPRPTDDPRP | -0.392
21 | RRIRPRPPRLPRPRPRPTDMPRP | 0.157
22 | RRIRPRPPRLPRPRPRPTEKPRP | 0.0615

Row | Sequence | shrunken log2 fold change
23 | RRIRPRPPRLPRPRPRPTFEPRP | 0.035
24 | RRIRPRPPRLPRPRPRPTFHPRP | 0.0667
25 | RRIRPRPPRLPRPRPRPTGEPRP | 0.396
26 | RRIRPRPPRLPRPRPRPTHMPRP | 0.255
27 | RRIRPRPPRLPRPRPRPTHWPRP | 0.484
28 | RRIRPRPPRLPRPRPRPTILPRP | -0.104
29 | RRIRPRPPRLPRPRPRPTKSPRP | 0.777
30 | RRIRPRPPRLPRPRPRPTMCPRP | -0.0327
31 | RRIRPRPPRLPRPRPRPTNAPRP | 0.167
32 | RRIRPRPPRLPRPRPRPTPEPRP | 0.277
33 | RRIRPRPPRLPRPRPRPTPQPRP | 0.497
34 | RRIRPRPPRLPRPRPRPTPYPRP | -0.0196
35 | RRIRPRPPRLPRPRPRPTQFPRP | 0.274
36 | RRIRPRPPRLPRPRPRPTRMPRP | 0.479
37 | RRIRPRPPRLPRPRPRPTRPPRP | 0.782
38 | RRIRPRPPRLPRPRPRPTSYPRP | -0.0178
39 | RRIRPRPPRLPRPRPRPTTRPRP | 1.65
40 | RRIRPRPPRLPRPRPRPTVPPRP | -0.0252
41 | RRIRPRPPRLPRPRPRPTVWPRP | 0.747
42 | RRIRPRPPRLPRPRPRPVFEPRP | 0.222
43 | RRIRPRPPRLPRPRPRPVFPPRP | 0.181
44 | RRIRPRPPRLPRPRPRPVHAPRP | 0.441

Row | Sequence | shrunken log2 fold change
45 | RRIRPRPPRLPRPRPRPVHWPRP | 0.00332
46 | RRIRPRPPRLPRPRPRPVISPRP | -0.00579
47 | RRIRPRPPRLPRPRPRPVIYPRP | -0.063
48 | RRIRPRPPRLPRPRPRPVKCPRP | -0.0701
49 | RRIRPRPPRLPRPRPRPVKFPRP | 0.184
50 | RRIRPRPPRLPRPRPRPVKSPRP | -0.0156
51 | RRIRPRPPRLPRPRPRPVNAPRP | 0.138
52 | RRIRPRPPRLPRPRPRPVPYPRP | -0.253
53 | RRIRPRPPRLPRPRPRPVQEPRP | -0.0759
54 | RRIRPRPPRLPRPRPRPVQHPRP | 0.278
55 | RRIRPRPPRLPRPRPRPVRKPRP | 0.73
56 | RRIRPRPPRLPRPRPRPVTLPRP | 0.527
57 | RRIRPRPPRLPRPRPRPVTPPRP | 0.125
58 | RRIRPRPPRLPRPRPRPVTRPRP | -0.0129
59 | RRIRPRPPRLPRPRPRPVVCPRP | 0.53
60 | RRIRPRPPRLPRPRPRPVVQPRP | 0.28
61 | RRIRPRPPRLPRPRPRPVVRPRP | 0.116
62 | RRIRPRPPRLPRPRPRPVWAPRP | 0.278
63 | RRIRPRPPRLPRPRPRPVWCPRP | 0.0172
64 | RRIRPRPPRLPRPRPRPVYFPRP | -0.671
65 | RRIRPRPPRLPRPRPRPWAQPRP | -0.00768
66 | RRIRPRPPRLPRPRPRPWCEPRP | -0.0374

Row | Sequence | shrunken log2 fold change
67 | RRIRPRPPRLPRPRPRPWDFPRP | 0.122
68 | RRIRPRPPRLPRPRPRPWDNPRP | -0.00581
69 | RRIRPRPPRLPRPRPRPWDWPRP | 0.00784
70 | RRIRPRPPRLPRPRPRPWEAPRP | -0.224
71 | RRIRPRPPRLPRPRPRPWEFPRP | -0.0818
72 | RRIRPRPPRLPRPRPRPWGYPRP | -0.0649
73 | RRIRPRPPRLPRPRPRPWHSPRP | -0.134
74 | RRIRPRPPRLPRPRPRPWICPRP | -0.182
75 | RRIRPRPPRLPRPRPRPWKGPRP | 0.0625
76 | RRIRPRPPRLPRPRPRPWLIPRP | -0.31
77 | RRIRPRPPRLPRPRPRPWLKPRP | -0.371
78 | RRIRPRPPRLPRPRPRPWMCPRP | -0.366
79 | RRIRPRPPRLPRPRPRPWMTPRP | 0.0158
80 | RRIRPRPPRLPRPRPRPWMVPRP | 0.0262
81 | RRIRPRPPRLPRPRPRPWPPPRP | 0.504
82 | RRIRPRPPRLPRPRPRPWQAPRP | -0.0268
83 | RRIRPRPPRLPRPRPRPWQEPRP | 0.00579
84 | RRIRPRPPRLPRPRPRPWQQPRP | -0.0467
85 | RRIRPRPPRLPRPRPRPWSLPRP | -0.0559
86 | RRIRPRPPRLPRPRPRPWSQPRP | 0.0452
87 | RRIRPRPPRLPRPRPRPWTGPRP | -0.125
88 | RRIRPRPPRLPRPRPRPWTMPRP | 0.0177

Row | Sequence | shrunken log2 fold change
89 | RRIRPRPPRLPRPRPRPWWFPRP | -0.133
90 | RRIRPRPPRLPRPRPRPWWVPRP | 0.0961
91 | RRIRPRPPRLPRPRPRPWYRPRP | -0.601
92 | RRIRPRPPRLPRPRPRPYCHPRP | -0.241
93 | RRIRPRPPRLPRPRPRPYCWPRP | -0.473
94 | RRIRPRPPRLPRPRPRPYERPRP | 0.0304
95 | RRIRPRPPRLPRPRPRPYFFPRP | -0.593
96 | RRIRPRPPRLPRPRPRPYGSPRP | -0.0157
97 | RRIRPRPPRLPRPRPRPYGTPRP | -0.732
98 | RRIRPRPPRLPRPRPRPYHFPRP | -0.245
99 | RRIRPRPPRLPRPRPRPYLNPRP | -0.765
100 | RRIRPRPPRLPRPRPRPYLWPRP | -0.769
101 | RRIRPRPPRLPRPRPRPYMEPRP | 1.54
102 | RRIRPRPPRLPRPRPRPYNWPRP | -0.731
103 | RRIRPRPPRLPRPRPRPYPDPRP | -0.145
104 | RRIRPRPPRLPRPRPRPYPKPRP | -0.0921
105 | RRIRPRPPRLPRPRPRPYPTPRP | -0.11
106 | RRIRPRPPRLPRPRPRPYPVPRP | -0.247
107 | RRIRPRPPRLPRPRPRPYQNPRP | -0.339
108 | RRIRPRPPRLPRPRPRPYRVPRP | 0.101
109 | RRIRPRPPRLPRPRPRPYRYPRP | 0.101
